In test [1] the target is T1, hRGMc-His (human, UniProt Q6ZVN8 36-400, limits assumed).
T1 construct: also called human RGMc; not shown: His tag
T1 sequence (looked up): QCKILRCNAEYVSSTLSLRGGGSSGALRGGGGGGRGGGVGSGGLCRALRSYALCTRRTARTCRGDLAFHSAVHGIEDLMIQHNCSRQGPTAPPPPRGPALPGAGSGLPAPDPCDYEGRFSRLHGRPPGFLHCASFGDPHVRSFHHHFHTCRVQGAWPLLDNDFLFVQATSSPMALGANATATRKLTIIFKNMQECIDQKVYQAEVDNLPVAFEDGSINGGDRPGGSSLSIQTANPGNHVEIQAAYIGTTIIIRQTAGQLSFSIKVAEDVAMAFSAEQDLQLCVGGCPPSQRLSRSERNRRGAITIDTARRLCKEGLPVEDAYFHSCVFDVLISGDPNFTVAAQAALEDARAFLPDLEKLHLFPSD
As to the kind of experiment: hRGMc-His ELISA.

Test [2] addresses T1, hRGMc-His. Description: direct binding ELISA (hRGMc-His). In general terms: ELISA stands for enzyme-linked immunosorbent assay.
Another test concerns the target T2, human RGMc (human, UniProt Q6ZVN8 36-400, limits assumed).
T2 construct: ELISA antigen for the yeast-derived antibodies; a human RGMc-Fc was used for negative selection but the ELISA antigen is not specified
T2 sequence (looked up): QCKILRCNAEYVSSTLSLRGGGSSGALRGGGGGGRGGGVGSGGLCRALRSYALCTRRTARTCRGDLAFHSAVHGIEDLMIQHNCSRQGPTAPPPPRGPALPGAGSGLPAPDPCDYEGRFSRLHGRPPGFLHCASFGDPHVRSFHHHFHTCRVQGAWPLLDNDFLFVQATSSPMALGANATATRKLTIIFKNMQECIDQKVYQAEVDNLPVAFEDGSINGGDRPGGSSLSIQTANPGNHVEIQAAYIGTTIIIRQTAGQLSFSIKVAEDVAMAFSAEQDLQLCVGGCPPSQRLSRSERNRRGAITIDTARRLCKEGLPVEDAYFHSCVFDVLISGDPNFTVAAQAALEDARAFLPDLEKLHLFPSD
Description: ELISA.

Another test concerns the target T3, hRGMa-His (human, UniProt Q96B86 48-422, limits assumed).
T3 construct: also called human RGMa (BIAcore); not shown: His tag
T3 sequence: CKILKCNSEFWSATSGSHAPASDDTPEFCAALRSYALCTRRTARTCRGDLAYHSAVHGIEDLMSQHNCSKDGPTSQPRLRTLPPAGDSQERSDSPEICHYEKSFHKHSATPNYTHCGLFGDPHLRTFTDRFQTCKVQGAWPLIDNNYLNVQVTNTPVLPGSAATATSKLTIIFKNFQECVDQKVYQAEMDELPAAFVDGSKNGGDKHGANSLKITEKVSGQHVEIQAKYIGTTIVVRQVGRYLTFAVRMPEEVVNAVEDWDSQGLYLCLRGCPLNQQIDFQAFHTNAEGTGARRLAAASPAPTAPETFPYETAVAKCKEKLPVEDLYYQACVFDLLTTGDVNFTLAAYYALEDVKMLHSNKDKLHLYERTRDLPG
Description: BIAcore.

In the next test the target is T4, Cyno RGMa-His (cynomolgus monkey, UniProt Q9N0A6 54-431, limits assumed).
T4 construct: also called cynomolgus (cyno) monkey RGMa (BIAcore); not shown: His tag
T4 sequence (looked up): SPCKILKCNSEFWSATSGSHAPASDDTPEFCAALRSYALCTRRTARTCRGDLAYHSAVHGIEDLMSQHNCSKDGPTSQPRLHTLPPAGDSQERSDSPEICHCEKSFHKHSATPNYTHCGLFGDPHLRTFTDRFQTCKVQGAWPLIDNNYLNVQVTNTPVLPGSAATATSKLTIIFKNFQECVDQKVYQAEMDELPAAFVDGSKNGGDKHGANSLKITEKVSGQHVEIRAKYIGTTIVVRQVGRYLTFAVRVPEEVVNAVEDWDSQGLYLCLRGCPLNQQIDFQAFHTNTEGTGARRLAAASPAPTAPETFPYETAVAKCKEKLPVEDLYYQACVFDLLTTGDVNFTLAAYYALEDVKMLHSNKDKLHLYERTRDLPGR
Description: BIAcore. For orientation: Surface plasmon resonance follows binding to a sensor surface in real time, without labels.

Test [3] addresses T1, hRGMc-His. As to the kind of experiment: BIAcore binding.

13 molecules from patent US20160326240A1 (published 2016) can be followed below.

B1: AE12-7 (antibody, V domains shown)
VH: EVQLVESGGGLVQPGGSLRLSCAASGFTSSSYAMTWVRQAPGKGLEWVSGISGSGESTYYADSVKGRFTISRDNSKNTLYLQMNSLRVEDTAIYYCARQGYGAHDYWGQGTLVTVSS
VL: not shown
notes: lambda light chain
Turning to B1, the binding result with hRGMc-His [1] is recorded as “binds”.

B2: AE12-5 (antibody, V domains shown)
VH: EVQLVQSGAEVKKPGASVKVSCKVSGHSLSELTIHWVRQAPGKGLEWMGGFDPEDGRGTYAPNFRGRVTMTEDTSTDTAYMELSGLRSEDAAVYYCATLLGEYDSYFDLWGRGTLVTVSS
VL: DVVMTQSPDFQSVTPEDKVTITCRASQSIGSCLHWYQQKPDQSPKLLIKYASQSISGVPSRFSGSGSGTDFTLTINSLEAEDAATYYCHQSSSLPYTFGQGTKLEIK
notes: kappa light chain
For B2, in the test with hRGMc-His [2], the binding result is given as “no binding (tested: 100 nM)”.

B3: AE12-8 (antibody, V domains shown)
VH: EVQLLESGGGLVKPGGSLRLSCAASGFTFDDYAMHWVRQAPGKGLEWVSLISWDGGSTYYADSVKGRFTISRDNSKNSLYLQMNSLRAEDTALYYCAKDIPKVGGYSYGYGALGYWGQGTPVTVSS
VL: SYELTQPPSVSVAPGQTARITCGGNNIGDISVHWYQQKSGQAPMLVVHDDSDRPSGIPERFSGSNSGSSATLTISRVEAGDEADYHCQVWDSGSGHHVFGTGTKVTVL
notes: lambda light chain
As to B3, the binding result with hRGMc-His [1] was “binds”.

B4: AE12-15 (antibody, V domains shown)
VH: EVQLVQSGAEVKEPGASVKVSCKASGYTFTDYYIQWVRQAPGHGLEWMGWINPKTGGTNYLQKFQGRVTMTRDTSTRTAYMELSSLRSDDTAFYYCVREDMNTVLATSWFDPWGQGTLVTVSS
VL: SYELTQPPSVSVSPGQTARITCSGNQLGHKFASWYQQKPGQSPVVVIYEDKKRPSGIPERFSGSNSGNTATLTISGTQAMDEADYYCQVWDVITDHYVFGTGTKVTVLG
notes: lambda light chain
Consider B4, for which the binding result in the test with human RGMc is given as “binds”.

B5: AE12-3 (antibody, V domains shown)
VH: EVQLVESGGGLVQPGRSLRLSCAASGFTFDDYAMHWVRQAPGKGLEWVAVISYDGSNKYYADSVKGRFTISRDNSKNTLYLQMNSLRAEDTAVYYCARERVYSSGKEGYYYGMDVWGQGTMVTVSS
VL: QSGLTQPPSVSAAPGQRVTISCTGSGSNIGAGYGVHWYQQLPATAPKILIYGDYNRPSGVPDRFSGSRSGTSASLTITGLQAEDEADYYCQSYDNSLRGVLFGGGTKLTVL
notes: lambda light chain
Regarding B5, the binding result in the test with hRGMc-His [2] is on record as “no binding (tested: 100 nM)”.

B6: AE12-13 (antibody, V domains shown)
VH: EVQLQESGAGLLKPSETLSLTCAVYGGSFSGYYWSWIRQPPGKGLEWIGEINHSGSTNYNPSLKSRVTISVDTSKNQFSLKLSSVTAADTAVYYCARDDGAGVFDLWGRGTLVTVSS
VL: DIQLTQSPSSLSASVGDGVTITCQASQDISNYLNWYQQKPGKAPKLLIYDASNLETGVPSRFSGSGSGTFFTLTINNLQPEDFATYYCQQSGNTPWTFGQGTKVEINR
notes: kappa light chain
For B6, in the test with human RGMc, the binding result was “binds”.

B7: AE12-1-H (antibody, V domains shown)
VH: EVQLVQSGAEVKKPGASVKVSCKASGYTFTSHGISWVRQAPGQGLDWMGWISPYSGNTNYAQKLQGRVTMTTDTSTSTAYMELSSLRSEDTAVYYCARVGSGPYYYMDVWGQGTLVTVSS
VL: QSALTQPRSVSGSPGQSVTISCTGTSSSVGDSIYVSWYQQHPGKAPKLMLYDVTKRPSGVPDRFSGSKSGNTASLTISGLQAEDEADYYCHSYAGTDTLFGGGTKVTVL
notes: AE12-1 variant; IgG
Usually Kd stands for a measure of binding affinity in units of concentration. By koff is commonly meant the first-order rate constant of dissociation. A high value points to a short-lived complex. The kon is a measure of how fast the partners come together. In the test with hRGMa-His, B7 returned a Kd of 3.8 nM, a koff of 0.00012 s⁻¹ and a kon of 32000 M⁻¹ s⁻¹. In addition, in the test with Cyno RGMa-His, the Kd is 13.4 nM, the koff was 0.00063 s⁻¹ and the association rate constant (kon) is 47000 M⁻¹ s⁻¹. In the test with hRGMc-His [3], the binding result is on record as “no binding”.

B8: AE12-1-K (antibody, V domains shown)
VH: EVQLVQSGAEVKKPGASVKVSCKASGYTFTSHGISWVRQAPGQGLDWMGWISPYSGNTNYAQKLQGRVTMTTDTSTSTAYMELSSLRSEDTAVYYCARVGSGPYYYMDVWGQGTLVTVSS
VL: QSALTQPRSVSGSPGQSVTISCTGTSSSVGDSIYVSWYQQHPGKAPKLMLYDVTKRPSGVPDRFSGSKSGNTASLTISGLQAEDEADYYCKSYAGTDTLFGGGTKVTVL
notes: AE12-1 variant; IgG
In the test with hRGMa-His, B8 showed a Kd of 8.8 nM, a dissociation rate constant (koff) of 0.0003 s⁻¹ and a kon of 34000 M⁻¹ s⁻¹. In the test with Cyno RGMa-His, this molecule displayed a dissociation constant Kd of 9.3 nM, an off-rate (koff) of 0.00047 s⁻¹ and a kon of 51000 M⁻¹ s⁻¹. Also, the binding result with hRGMc-His [3] is “no binding”.

B9: AE12-1-I (antibody, V domains shown)
VH: EVQLVQSGAEVKKPGASVKVSCKASGYTFTSHGISWVRQAPGQGLDWMGWISPYSGNTNYAQKLQGRVTMTTDTSTSTAYMELSSLRSEDTAVYYCARVGSGPYYYMDVWGQGTLVTVSS
VL: QSALTQPRSVSGSPGQSVTISCTGTSSSVGDSIYVSWYQQHPGKAPKLMLYDVTKRPSGVPDRFSGSKSGNTASLTISGLQAEDEADYYCISYAGTDTLFGGGTKVTVL
notes: AE12-1 variant; IgG
Turning to B9, in the test with hRGMa-His, binding was put at a Kd of 4.5 nM, the koff amounted to 0.00013 s⁻¹ and the on-rate (kon) was found to be 30000 M⁻¹ s⁻¹. Also, in the test with Cyno RGMa-His, binding was put at a Kd of 8.9 nM, the koff was 0.00087 s⁻¹ and the kon came out at 99000 M⁻¹ s⁻¹. The binding result with hRGMc-His [3] was “no binding”.

B10: AE12-1-V (antibody, V domains shown)
VH: EVQLVQSGAEVKKPGASVKVSCKASGYTFTSHGISWVRQAPGQGLDWMGWISPYSGNTNYAQKLQGRVTMTTDTSTSTAYMELSSLRSEDTAVYYCARVGSGPYYYMDVWGQGTLVTVSS
VL: QSALTQPRSVSGSPGQSVTISCTGTSSSVGDSIYVSWYQQHPGKAPKLMLYDVTKRPSGVPDRFSGSKSGNTASLTISGLQAEDEADYYCVSYAGTDTLFGGGTKVTVL
notes: AE12-1 variant; read as AE12-1-V from the order of the variants; IgG
As for B10, in the test with hRGMa-His, the affinity, expressed as Kd, was 5.9 nM; the koff is 0.00015 s⁻¹; the kon worked out at 25000 M⁻¹ s⁻¹. In the test with Cyno RGMa-His, this molecule came in with a dissociation constant (Kd) of 9.2 nM, a koff of 0.00099 s⁻¹ and a kon of 110000 M⁻¹ s⁻¹. Besides, the binding result with hRGMc-His [3] was “no binding”.

B11: AE12-1-L (antibody, V domains shown)
VH: EVQLVQSGAEVKKPGASVKVSCKASGYTFTSHGISWVRQAPGQGLDWMGWISPYSGNTNYAQKLQGRVTMTTDTSTSTAYMELSSLRSEDTAVYYCARVGSGPYYYMDVWGQGTLVTVSS
VL: QSALTQPRSVSGSPGQSVTISCTGTSSSVGDSIYVSWYQQHPGKAPKLMLYDVTKRPSGVPDRFSGSKSGNTASLTISGLQAEDEADYYCLSYAGTDTLFGGGTKVTVL
notes: AE12-1 variant; IgG; also called AE-12-L
For B11, in the test with hRGMa-His, the affinity, expressed as Kd, was 6.6 nM; the dissociation rate constant (koff) was determined as 0.00025 s⁻¹; the association rate constant (kon) stood at 38000 M⁻¹ s⁻¹. In the test with Cyno RGMa-His, the Kd was 10.1 nM, the koff is 0.00067 s⁻¹ and the on-rate (kon) came to 62000 M⁻¹ s⁻¹. Moreover, the binding result with hRGMc-His [3] is reported as “no binding”.

B12: AE12-2 (antibody, V domains shown)
VH: EVQLVQSGAEVKKPGASVKVSCKASGYTFTSYDINWVRQATGQGLEWMGWMNPNSGNTGYAQKFQGRVTMTRNTSISTAYMELSSLRSEDTAVYYCARSTSLSVWGQGTLVTVSS
VL: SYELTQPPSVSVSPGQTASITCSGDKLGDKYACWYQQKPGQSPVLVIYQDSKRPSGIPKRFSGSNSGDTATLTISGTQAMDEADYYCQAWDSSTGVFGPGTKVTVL
notes: lambda light chain
Consider B12, for which the binding result in the test with hRGMc-His [2] was “no binding (tested: 100 nM)”.

B13: AE12-23 (antibody, V domains shown)
VH: EVQLQESGPGLVKPSETLSLTCTVSGGSISGYYWSWIRQSPGKGLEWIGEIFHTGRTYYNPSLRSRLTISVDTSKNQFSLKLSSLTAADTAVYYCARDSAFGSFDYWGQGTLVTVSS
VL: DIRVTQSPSSLSASVGDRVTITCQANEDISIYLNWYQQRPGKAPKLLIYDASNLETGVPSRFSGSGSGTDFTFTISSLQPEDFATYYCQQYHTYPFTFGGGTKVDIKR
notes: kappa light chain
In the case of B13, the binding result with human RGMc is listed as “binds”.
